Results published in US20230192860A1 (Bristol-Myers Squibb, published 2023).
Numbering of substitutions follows the chain as printed. One block for each binder: values may come before it.

Columns and labels:
[1] = biological target: T1, monovalent hVISTA-ECD (amino acids 32-193 of SEQ ID NO: 1 with a 7xHis tail) (human, UniProt Q9H7M9 33-193); test: SPR 37C, Ab on Protein A, hVISTA-ECD 50-5 nM, pH 7.4, average
T1 construct: analyte of the SPR assays; also called huVISTA-His; human VISTA-ECD
Description: (§1) Binding of several preparations of each of the ‘029 progeny clones and of the parent ‘029 antibodies, formatted as IgG1.3 antibodies, to human VISTA at pH 6.0 and 7.4 was measured by Surface plasmon resonance (SPR). SPR analysis was performed to measure koff and KD binding affinity measurements for VISTA Abs at acidic and neutral pHs using a Biacore® T100 instrument (GE Healthcare). […] Antibodies were diluted to 25 nM in PBST pH 7.4, and were captured across active biosensor flow cells at 5 ul/min for 60 seconds. A concentration series of 50 - 5 nM monovalent hVISTA-ECD (SEQ ID NO: 325) was prepared in pH 7.4 and 6.0 running buffers, and was injected over the captured antibodies at 40 ul/min to measure association and dissociation. Two 15 second injections of 10 mM glycine pH 1.5 were used to regenerate the Protein A capture surface between assay cycles. Rate constants ka (kₒₙ) and kd (koff) were derived from reference flow cell and 0 nM blank-subtracted sensorgrams, and were fit to a 1:1 binding model in Biacore® T200 Evaluation Software v.2.0. The affinity constant, KD was calculated as the ratio of rate constants koff/kₒₙ for each VISTA antibody.

[2] = biological target: T1, monovalent hVISTA-ECD (amino acids …); test: SPR 37C, Ab on Protein A, hVISTA-ECD 50-5 nM, pH 6.0, average
Description: as §1

hVISTA-ECD 6-His tag [3] = biological target: T2, hVISTA-ECD 6-His tag (human, UniProt Q9H7M9 33-193); test: SPR, Ab on Protein A, hVISTA analyte, pH 6.45
T2 construct: also called monovalent hVISTA-ECD; human VISTA
T2 sequence (Q9H7M9 other isoform, or with tags, fused parts or gaps limits assumed): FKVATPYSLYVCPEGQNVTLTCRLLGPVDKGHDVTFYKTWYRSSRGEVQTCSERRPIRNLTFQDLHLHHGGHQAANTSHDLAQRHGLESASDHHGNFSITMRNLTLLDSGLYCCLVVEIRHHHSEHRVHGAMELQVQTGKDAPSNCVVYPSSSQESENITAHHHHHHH

hVISTA-ECD 6-His tag [4] = biological target: T2, hVISTA-ECD 6-His tag; test: SPR, Ab on Protein A, hVISTA analyte, pH 6.0
hVISTA-ECD 6-His tag [5] = biological target: T2, hVISTA-ECD 6-His tag; test: SPR; kd at pH 6.45 over kd at pH 6.0 (head prints 7.4)
Description: (§2) Further binding kinetic experiments were performed at various pHs on VISTA antibodies described herein by SPR as generally described in Example 9 above. Antibodies were normalized to 50 nM concentration in PBST pH 7.4 and captured on a Protein A CM5 chip (ID 4931) by injecting for 45 seconds at a 5 µL/min flow rate. An 8-point human VISTA titration ([…]) was prepared in PBST at pH 7.4, 6.9, 6.45, and 6.0. Titrations were injected over the captured antibodies for 180 seconds at 30 µL/min. Sensorgrams were fit to a 1:1 binding model in T200 evaluation software and the kinetic constants were reported.
(§3) Each table reports the data at one of the four tested pHs (7.4, 6.9, 6.45, and 6.0, respectively). The 8-point hVISTA titration used in these assays was chosen to provide increased confidence in kinetic values reported at neutral pH conditions. A relatively stringent cutoff for non-binding was applied in this assay. Certain progeny of P1-061029 antibody (P1-068757, ‘759, ‘765, ‘771, and ‘775) show no binding to hVISTA at micromolar concentrations at pH 7.4, while ‘761 and ‘767 show no binding to hVISTA at 100 nM at pH 7.4 but do show binding to hVISTA at micromolar concentrations.

hVISTA-ECD 6-His tag [6] = biological target: T2, hVISTA-ECD 6-His tag; test: SPR; KD at pH 6.45 over KD at pH 6.0 (head prints 7.4)
[7] = biological target: T1, monovalent hVISTA-ECD (amino acids …); test: SPR, pH 7.4 over pH 6.0
Description: as §2, §3

[8] = biological target: T1, monovalent hVISTA-ECD (amino acids …); test: SPR, Ab on Protein A, hVISTA 100-7.8 nM, pH 7.4
Description: as §2

T1 sequence (Q9H7M9 other isoform, or with tags, fused parts or gaps limits assumed): as above

B1: P1-069063 (antibody, human IgG1, kappa, V domains shown)
VH: EVQLVESGGGLVQPGKSLRLSCAASGFTLEDYAMHWVRQAPGKGLEWVSGINWNSAEIGYADSVKGRFTISRDNAKNSLYLQMNSLRTEDTALYYCAKVPGYSGGWIDADDEWGQGTMVTVSS
VL: not shown
notes: IgG1.3
Kd [1]: 230 nM
koff [1]: 0.027 s⁻¹
kon [1]: 120000 M⁻¹ s⁻¹
Kd [2]: 2.4 nM
koff [2]: 0.0044 s⁻¹
kon [2]: 1.9e+06 M⁻¹ s⁻¹

B2: P1-068765 (antibody, human IgG1, kappa, V domains shown)
VH: B1 VH with L29D, A56E, D110E, E112D
VL: not shown
notes: also called P1-068765-10; 029 progeny
Kd (hVISTA-ECD 6-His tag [3]): 420 nM
koff (hVISTA-ECD 6-His tag [3]): 0.013 s⁻¹
kon (hVISTA-ECD 6-His tag [3]): 31000 M⁻¹ s⁻¹
Kd (hVISTA-ECD 6-His tag [4]): 29 nM
koff (hVISTA-ECD 6-His tag [4]): 0.0045 s⁻¹
kon (hVISTA-ECD 6-His tag [4]): 150000 M⁻¹ s⁻¹
7.4 kd/ 6.0 kd (hVISTA-ECD 6-His tag [5]): 2.8
7.4 KD/ 6.0 KD (hVISTA-ECD 6-His tag [6]): 14.2

B3: P1-068771 (antibody, human IgG1, kappa, V domains shown)
VH: B1 VH with Y32E, A56H, D110E, E112D
VL: not shown
notes: also called P1-068771-10; 029 progeny
Kd (hVISTA-ECD 6-His tag [3]): 370 nM
koff (hVISTA-ECD 6-His tag [3]): 0.022 s⁻¹
kon (hVISTA-ECD 6-His tag [3]): 61000 M⁻¹ s⁻¹
Kd (hVISTA-ECD 6-His tag [4]): 32 nM
koff (hVISTA-ECD 6-His tag [4]): 0.01 s⁻¹
kon (hVISTA-ECD 6-His tag [4]): 320000 M⁻¹ s⁻¹
7.4 kd/ 6.0 kd (hVISTA-ECD 6-His tag [5]): 2.2
7.4 KD/ 6.0 KD (hVISTA-ECD 6-His tag [6]): 11.6

B5: P1-070914 (P1-068767_E30D_D52N) (antibody, human IgG1, kappa, V domains shown)
VH: B1 VH with E30D, A56E, E57N, D110E, E112D
VL: not shown
notes: IgG1.3; also called P1-070914-3
7.4 KD/ 6.0 KD [7]: 396
7.4 kd/ 6.0 kd [7]: 14.6
Kd [8]: 4200 nM
koff [8]: 0.035 s⁻¹
kon [8]: 8400 M⁻¹ s⁻¹

B6: P1-069075 (antibody, human IgG1, kappa, V domains shown)
VH: B1 VH with N54D, G104H, D110E, E112V
VL: not shown
notes: IgG1.3
Kd [1]: 18 nM
koff [1]: 0.0023 s⁻¹
kon [1]: 130000 M⁻¹ s⁻¹
Kd [2]: 0.22 nM
koff [2]: 0.00029 s⁻¹
kon [2]: 1.3e+06 M⁻¹ s⁻¹

B7: P1-069071 (antibody, human IgG1, kappa, V domains shown)
VH: B1 VH with Y32E, E57D, G104E, D110F, E112V
VL: not shown
notes: IgG1.3
Kd [1]: 93 nM
koff [1]: 0.004 s⁻¹
kon [1]: 43000 M⁻¹ s⁻¹
Kd [2]: 0.73 nM
koff [2]: 0.00051 s⁻¹
kon [2]: 700000 M⁻¹ s⁻¹

B8: P1-069069 (antibody, human IgG1, kappa, V domains shown)
VH: B1 VH with E30D, A56E, E112V
VL: not shown
notes: IgG1.3
Kd [1]: 84 nM
koff [1]: 0.0075 s⁻¹
kon [1]: 90000 M⁻¹ s⁻¹
Kd [2]: 0.86 nM
koff [2]: 0.0012 s⁻¹
kon [2]: 1.4e+06 M⁻¹ s⁻¹

The remaining lines, values ahead:

7.4 KD/ 6.0 KD [7]: 34.5
7.4 kd/ 6.0 kd [7]: 8.6
Kd [8]: 350 nM
koff [8]: 0.024 s⁻¹
kon [8]: 67000 M⁻¹ s⁻¹
B4: P1-070908 (P1-068767_E55A) (antibody, human IgG1, kappa, V domains shown)
VH: B1 VH with N52D, E57N, D110E, E112D
VL: not shown
notes: IgG1.3; also called P1-070908-6

Kd (hVISTA-ECD 6-His tag [3]): 140 nM
koff (hVISTA-ECD 6-His tag [3]): 0.018 s⁻¹
kon (hVISTA-ECD 6-His tag [3]): 130000 M⁻¹ s⁻¹
Kd (hVISTA-ECD 6-His tag [4]): 24 nM
koff (hVISTA-ECD 6-His tag [4]): 0.01 s⁻¹
kon (hVISTA-ECD 6-His tag [4]): 420000 M⁻¹ s⁻¹
7.4 kd/ 6.0 kd (hVISTA-ECD 6-His tag [5]): 1.7
7.4 KD/ 6.0 KD (hVISTA-ECD 6-His tag [6]): 5.8
B9: P1-068757 (antibody, human IgG1, kappa, V domains shown)
VH: B1 VH with Y32E, A56E, D110E, E112D
VL: not shown
notes: also called P1-068757-9; 029 progeny

Kd (hVISTA-ECD 6-His tag [3]): 220 nM
koff (hVISTA-ECD 6-His tag [3]): 0.017 s⁻¹
kon (hVISTA-ECD 6-His tag [3]): 77000 M⁻¹ s⁻¹
Kd (hVISTA-ECD 6-His tag [4]): 77 nM
koff (hVISTA-ECD 6-His tag [4]): 0.009 s⁻¹
kon (hVISTA-ECD 6-His tag [4]): 120000 M⁻¹ s⁻¹
7.4 kd/ 6.0 kd (hVISTA-ECD 6-His tag [5]): 1.8
7.4 KD/ 6.0 KD (hVISTA-ECD 6-His tag [6]): 2.8
B10: P1-068775 (antibody, human IgG1, kappa, V domains shown)
VH: B1 VH with Y32E, N52D, A56E, G104H, D110E, E112D
VL: not shown
notes: also called P1-068775-8; 029 progeny
